{"source": "paper PMC2953525", "about": "“Subtle Alterations in PCNA-Partner Interactions Severely Impair DNA Replication and Repair” (PLoS Biology, 2010)", "molecules": {"B1": {"name": "pol30-Rad30E2: PCNA mutant evolved for Rad30, IDCL sequence DDDWDFLKILEL (protein)", "chain": "MLEAKFEEASLFKRIIDGFKDCVQLVNFQCKEDGIIAQAVDDSRVLLVSLEIGVEAFQEYRCDHPVTLGMDLTSLSKILRCGNNTDTLTLIADNTPDSIILLFEDTKKDRIAEYSLKLMDDDWDFLKILELQYDSTLSLPSSEFSKIVRDLSQLSDSINIMITKETIKFVADGDIGSGSVIIKPFVDMEHPETSIKLEMDQPVDLTFGAKYLLDIIKGSSLSDRVGIRLSSEAPALFQFDLKSGFLQFFLAPKFNDEE", "modifications": "left off: Gal4 activation domain, end not stated, kept"}, "B2": {"name": "pol30-Rad27E6: PCNA mutant evolved for Rad27, IDCL sequence DGDYDILKIREL (protein)", "chain": "B1 chain with D121G, W123Y, F125I, L129R", "modifications": "left off: Gal4 activation domain, end not stated, kept"}}, "key": {"PCNA-Rad30 complex": {"test_system": "PCNA-Rad30 complex", "assay": "ELISA for PCNA-partner complexes extracted from yeast cells", "assay_type": "binding", "conditions": "ELISA of yeast extracts, GFP signal normalized to immobilized PCNA signal; averages of at least 5 independent repeats", "text": "(§1) To examine whether increased PCNA-partner interaction affinities result in increased PCNA-partner complex formation in vivo in pol30 mutant strains, we analyzed the levels of these complexes extracted from yeast cells. We used strains expressing the pol30 mutants as a sole source of PCNA in the cell under the control of the native POL30 promoter (see below). We immobilized PCNA from the crude yeast extracts onto ELISA plates and analyzed the amount of bound partner, relative to the amount of total PCNA immobilized on the plate (Figure 4).\n(§2) Figure 4 Increased levels of in vivo PCNA-partner complex formation in the pol30-Rad30E2 or the pol30-Rad27E6 mutant strains, relative to the POL30 strain. (A). ELISA experimental set-up for the detection of PCNA-partner complexes extracted directly from WT and mutant PCNA strains. The assay is based on the immobilization of PCNA-partner complex using anti-PCNA antibody-coated ELISA plates. Detection of complex levels is performed using antibodies against the GFP fused to the C-terminal of the PCNA partner. […]\n(§3) Yeast cell extracts were generated from 0.5 L of logarithmic cultures using conventional methods. […] Following centrifugation, cell extracts were collected and protein concentration was determined by the BCA method. […] PCNA-partner complex levels were calculated as the ratio of the GFP signal to the PCNA signal detected for the same cell extract. […]"}, "PCNA-Rad27 complex": {"test_system": "PCNA-Rad27 complex", "assay": "ELISA for PCNA-partner complexes extracted from yeast cells", "assay_type": "binding", "conditions": "ELISA of yeast extracts, GFP signal normalized to immobilized PCNA signal; averages of at least 5 independent repeats", "text": "as §1, §2, §3"}}, "note": "Substitutions are numbered along the chain they refer to."}
{"molecule": "B1", "values": [{"measurement": "increase in PCNA-Rad30 complex formation relative to the POL30 WT strain", "setting": "PCNA-Rad30 complex", "value": 70, "unit": "%"}]}
{"molecule": "B2", "values": [{"measurement": "increase in PCNA-Rad27 complex formation relative to the POL30 WT strain", "setting": "PCNA-Rad27 complex", "value": 17, "unit": "%"}]}
